Article PMC9653380

Legend:
[1] = molecular target: Fc-tagged human ACE2 (human) (UniProt Q9BYF1); assay: BLI
[2] = molecular target: variant S-trimer (prefusion-stabilized SARS-CoV-2 spike trimer, S-6P backbone, with K417N, E484K, N501Y and D614G) (SARS-CoV-2 | bacteriophage T4); assay: SEC

## variant S-trimer (prefusion-stabilized SARS-CoV-2 spike trimer, S-6P backbone, with K417N, E484K, N501Y and D614G)
[1]
  Kd: 9.14 nM
[2]
  stoichiometry N: 3
